We go through five substances from patent US20050220762A1.

For the first experiment, the target named is T1, full length rat GHR (L43R) on BAF3 cells (rat) (UniProt P16310).
T1 sequence (looked up): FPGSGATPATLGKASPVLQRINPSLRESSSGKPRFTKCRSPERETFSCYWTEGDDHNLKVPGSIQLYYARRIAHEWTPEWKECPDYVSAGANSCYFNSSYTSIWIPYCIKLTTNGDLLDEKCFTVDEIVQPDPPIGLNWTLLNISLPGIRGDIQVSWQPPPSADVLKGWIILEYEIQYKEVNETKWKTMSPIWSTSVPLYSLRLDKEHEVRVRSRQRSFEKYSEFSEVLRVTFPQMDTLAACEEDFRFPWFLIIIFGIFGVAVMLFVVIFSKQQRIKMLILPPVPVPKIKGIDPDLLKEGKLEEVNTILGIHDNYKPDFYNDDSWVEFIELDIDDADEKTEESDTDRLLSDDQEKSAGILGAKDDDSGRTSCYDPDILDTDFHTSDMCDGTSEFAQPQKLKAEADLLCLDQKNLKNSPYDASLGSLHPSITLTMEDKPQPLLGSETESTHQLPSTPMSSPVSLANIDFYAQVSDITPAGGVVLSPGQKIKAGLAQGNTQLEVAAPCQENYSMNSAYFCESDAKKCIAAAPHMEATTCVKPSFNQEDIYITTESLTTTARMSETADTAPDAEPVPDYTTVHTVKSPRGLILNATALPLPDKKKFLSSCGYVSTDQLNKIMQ
Description: cell-based or functional assay.
Substance “hGH Y35pAF linked to 40 kDa PEG (from UniProt P01241 27-217) (ligand)” yielded a Proliferation EC50 (nM), BrdU, rat GHR (L43R) BAF3 cells; WHO hGH expressed as unity of 24 nM.
The same measure, in the same setting: with “hGH K145pAF linked to 30 kDa PEG (from UniProt P01241 27-217) (ligand)” the figure was 5.3 nM.
Substance “hGH G131pAF linked to 30 kDa PEG (from UniProt P01241 27-217) (ligand)” registered a Proliferation EC50 (nM), BrdU, rat GHR (L43R) BAF3 cells; WHO hGH expressed as unity of 4.6 nM.
Turning to “hGH Y143pAF linked to 30 kDa PEG (from UniProt P01241 27-217) (ligand)”, the Proliferation EC50 (nM), BrdU, rat GHR (L43R) BAF3 cells; WHO hGH expressed as unity is 6.6 nM.

The next experiment concerns the target human growth hormone receptor on IM-9 cells (human) (UniProt P10912). Kind of experiment: cell-based or functional assay.
Sequence of UniProt P10912 (P10912 19-638): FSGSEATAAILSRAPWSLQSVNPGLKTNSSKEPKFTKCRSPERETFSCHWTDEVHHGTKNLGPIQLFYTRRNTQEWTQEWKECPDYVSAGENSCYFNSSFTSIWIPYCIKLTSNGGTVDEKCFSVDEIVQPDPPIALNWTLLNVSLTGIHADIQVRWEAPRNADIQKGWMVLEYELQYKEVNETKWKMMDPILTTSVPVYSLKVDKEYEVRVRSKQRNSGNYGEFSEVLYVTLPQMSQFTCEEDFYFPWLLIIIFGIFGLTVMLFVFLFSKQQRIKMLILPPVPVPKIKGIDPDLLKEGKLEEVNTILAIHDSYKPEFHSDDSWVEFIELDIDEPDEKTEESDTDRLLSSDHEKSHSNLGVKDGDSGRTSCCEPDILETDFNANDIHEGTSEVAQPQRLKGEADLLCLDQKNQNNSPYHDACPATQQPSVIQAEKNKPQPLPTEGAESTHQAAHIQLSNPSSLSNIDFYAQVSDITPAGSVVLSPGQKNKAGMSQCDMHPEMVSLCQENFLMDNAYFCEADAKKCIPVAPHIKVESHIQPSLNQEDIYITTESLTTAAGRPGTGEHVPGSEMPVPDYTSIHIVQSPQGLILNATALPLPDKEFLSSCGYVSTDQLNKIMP
On to “hGH Y35pAF linked to 40 kDa PEG (from UniProt P01241 27-217) (ligand)”, for which the pSTAT5 EC50 (nM), IM-9; WHO hGH expressed as unity was determined as 53.3 nM.
The substance “hGH K145pAF linked to 30 kDa PEG (from UniProt P01241 27-217) (ligand)” showed a pSTAT5 EC50 (nM), IM-9; WHO hGH expressed as unity of 20.6 nM.
With “hGH R134pAF linked to 20 kDa PEG (from UniProt P01241 27-217) (ligand)”, the pSTAT5 EC50 (nM), IM-9; WHO hGH expressed as unity turned out to be 5.3 nM.
Still for that read-out and setting: with “hGH G131pAF linked to 30 kDa PEG (from UniProt P01241 27-217) (ligand)” the figure was 23.8 nM; with “hGH Y143pAF linked to 30 kDa PEG (from UniProt P01241 27-217) (ligand)”, 12.3 nM.
